T1: recombinant his-S-tagged pro-domain of human BDNF (residues Ala1-Arg110), from pET-30 Xa/LIC, E. coli (human) (UniProt P23560)
T1 sequence: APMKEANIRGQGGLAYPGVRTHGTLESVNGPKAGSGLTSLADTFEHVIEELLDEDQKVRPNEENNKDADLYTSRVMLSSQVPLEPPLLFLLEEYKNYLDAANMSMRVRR

B1: pro-domain of human BDNF fused to GST (glutathione S-transferase), produced in E. coli (protein, not shown: a dimerising Fc or GST)
chain: T1 sequence
B2: sortilin peptide … (synthetic, soluble) (peptide)
peptide: RSSDFAKNFVQTDLPF

How the values were obtained:
[1] = target: purified human Sortilin extracellular domain (produced in stably transfected CHO cells) (human) (UniProt Q99523); test: SPR (Biacore), immobilised Sortilin extracellular domain (94 fmol/mm2); GST-pro-domain of proBDNF, upper panel of FIG. 7
[2] = target: T1, recombinant his-S-tagged pro-domain of human BDNF (residues Ala1-Arg110), from pET-30 Xa/LIC, E. coli (human); test: SPR competition, 390 nM Sortilin with 300 uM peptide over immobilised pro-dom-BDNF

purified human Sortilin extracellular domain (produced in stably transfected CHO cells) (human), sequence (Q99523 78-755 V650M limits assumed): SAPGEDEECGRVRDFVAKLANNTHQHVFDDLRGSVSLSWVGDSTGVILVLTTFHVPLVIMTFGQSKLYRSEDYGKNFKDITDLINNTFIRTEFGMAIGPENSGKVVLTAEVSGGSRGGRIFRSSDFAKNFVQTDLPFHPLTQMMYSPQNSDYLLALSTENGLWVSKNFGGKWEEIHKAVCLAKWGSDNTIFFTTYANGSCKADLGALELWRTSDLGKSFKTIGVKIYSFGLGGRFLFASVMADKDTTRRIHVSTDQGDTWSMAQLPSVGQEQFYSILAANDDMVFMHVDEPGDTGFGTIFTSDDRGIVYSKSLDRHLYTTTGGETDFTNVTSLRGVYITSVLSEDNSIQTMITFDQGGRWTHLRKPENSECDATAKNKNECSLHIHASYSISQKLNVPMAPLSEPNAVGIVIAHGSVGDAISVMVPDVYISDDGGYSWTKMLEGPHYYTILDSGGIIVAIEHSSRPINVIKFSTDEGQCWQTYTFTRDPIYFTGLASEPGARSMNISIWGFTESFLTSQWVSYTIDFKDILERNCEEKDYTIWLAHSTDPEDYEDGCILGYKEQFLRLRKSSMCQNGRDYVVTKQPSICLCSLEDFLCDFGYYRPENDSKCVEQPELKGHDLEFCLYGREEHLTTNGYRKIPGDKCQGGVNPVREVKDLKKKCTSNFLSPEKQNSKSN

Binder | Kd [1] [nM] | percent inhibition of Sortilin binding to pro-dom-BDNF [2] [%]
B1 | 58 | –
B2 | – | 66
